The target of test [1] is T1, CCR10 (Homo sapiens, UniProt Q9NPB9).
T1 sequence (Q9NPB9 1-350): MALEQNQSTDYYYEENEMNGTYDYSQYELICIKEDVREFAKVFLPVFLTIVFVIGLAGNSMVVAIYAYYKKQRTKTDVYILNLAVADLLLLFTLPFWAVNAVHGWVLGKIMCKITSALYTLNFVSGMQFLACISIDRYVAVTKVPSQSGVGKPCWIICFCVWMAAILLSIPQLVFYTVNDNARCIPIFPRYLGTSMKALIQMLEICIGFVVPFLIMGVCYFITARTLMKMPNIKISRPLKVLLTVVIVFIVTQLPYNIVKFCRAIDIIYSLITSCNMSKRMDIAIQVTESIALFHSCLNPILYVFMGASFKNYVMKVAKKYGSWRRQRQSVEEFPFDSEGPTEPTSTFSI
Briefly: Homologous competition binding of radiolabeled chemokine on HEK293-CCR10 cells. On the set-up: Full length CCR10 expression constructs were made in pIRESpuro expression vector; expressed in transfected cells; HEK293-CCR10). An excerpt:
Human, viral and murine recombinant chemokines were obtained from R&D Systems (Minneapolis, Minn.; http://cytokine.rndsystems.com/cyt_cat/cyt_cat.html). ^125I-labeled ELC and TECK were obtained from Amersham. Full length CCR10 expression constructs were made in pIRESpuro expression vector (Clontech, Palo Alto, Calif.) with a FLAG epitope tag and prolactin signal sequence, and used to generated stable transfectants in HEK293 cells. Transient and stable transfections for CCR10 and stalkokines were done using Superfect reagent (Qiagen, Valencia, Calif.) following manufacturer's protocol. Stably-transfected cells were generated by selection in 2 ug/mL puromycin for 7 days, and expression was confirmed by FACS analysis of the FLAG epitope using anti-FLAG M1 (Sigma, St. Louis, Mo.) and 2′ anti-mouse PE conjugate (Coulter Immunotech, Miami, Fla.).
(§1) Furthermore ELC-SK mediated adhesion was abolished in the presence of soluble native ELC as a competitor (FIG. 3A, top row). […] Moreover, radiolabeled ELC was used in a traditional homologous competition assay in the presence of increasing concentrations of unlabeled ELC. […] Taken together, the stalkokine-based adhesion and radiolabeled ligand binding/homologous competition assays indicate that CCR10 is a new chemokine receptor that bound a novel compliment of chemokines.

For another test, the target named is T2, CCR7 (Homo sapiens, UniProt P32248).
T2 construct: host or cells: mouse myeloma NSO
T2 sequence (P32248 25-378): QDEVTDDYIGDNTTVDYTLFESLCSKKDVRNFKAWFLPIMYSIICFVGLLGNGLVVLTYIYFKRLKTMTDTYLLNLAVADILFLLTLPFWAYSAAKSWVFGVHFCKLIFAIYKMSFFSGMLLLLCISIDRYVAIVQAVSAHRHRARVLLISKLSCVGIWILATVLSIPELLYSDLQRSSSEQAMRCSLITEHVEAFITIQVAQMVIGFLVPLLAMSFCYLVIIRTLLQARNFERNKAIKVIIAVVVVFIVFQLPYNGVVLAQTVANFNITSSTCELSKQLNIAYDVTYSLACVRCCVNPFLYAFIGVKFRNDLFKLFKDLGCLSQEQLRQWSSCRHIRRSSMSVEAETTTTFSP
The test is described as follows: Binding of CCR7-NSO cells to immobilized stalkokines. The method, then:
(§2) In one set of experiments, five 8 well chamber slides (Lab-Tek II, Nalge Nunc International, Rochester, N.Y.), 250 ul of 10 ug/ml anti-his antibody (R&D Systems, Minneapolis, Minn.) in PBS was added to each well and incubated at room temperature overnight (typically 16 hours). Following, the liquid in each well was aspirated and washed once for approximately 5 minutes with 500 ul of PBS. The wells were then “blocked” (blocked for any additional protein binding sites) with the addition of 250 ul of blocking solution (2% fetal bovine serum, 0.5% BSA in PBS) and incubation for 1 hour at room temp (e.g., 20° C.). The liquid in each well was aspirated and 250 ul of supernatant containing the chemokine-stalk-immobilization domain fusion proteins (SDF1a-FRAC, finetaxin-FRAC, CCL27-FRAC, 1309-FRAC, MIP3a-FRAC, ELC-FRAC, SLC-FRAC, MDC-FRAC, TARC-FRAC, or BRAK-FRAC) or the control supernatant was added to two wells. Each slide contained two wells with control supernatant (from mock-transfected cells) and two wells with the positive control SDF1a (which binds the ubiquitous chemokine receptor CXCR4). The four other wells were for experimental samples. The supernatants were incubated for one hour at room temperature (typically 20° C.), then incubated for an additional hour at 37° C. […] The slide was then ready for addition of cells for assay. […]

In another test the test system is wild type HEK293 cells. Briefly: Homologous competition binding of radiolabeled ELC on wild type HEK293 cells. On the set-up: species or system human. The following applies: wildtype (wt) HEK293 cells.
Description: as §1

Test [2] deals with T1, CCR10. Briefly: Spectrum of ligands that bind to CCR10. On the set-up: Full length CCR10 expression constructs were made in pIRESpuro expression vector; expressed in transfected cells; HEK293-CCR10). The class given is binding.
Description: as §1

In test [3] the target is T1, CCR10. The test is described as follows: Binding of CCR10-NSO cells to immobilized stalkokines. Set-up: expressed in transfected cells; host or cells: not clear (NSO per the earlier reading). The method, then:
as §2

As to “ELC: EBl1 ligand chemokine, soluble recombinant native form”, the “Binding of radiolabeled chemokine in homologous competition with cold chemokine” value in the test with CCR10 [1] was “significant binding”. The “Binding to Stalkokine form” value with CCR7 and with CCR10 [3] was “yes” in each case. The “Binding of radiolabeled ELC in homologous competition with unlabeled ELC” value in the test on wild type HEK293 cells is recorded as “not”. In addition, the “Affinity of binding to CCR10” value with CCR10 [2] is given as “high affinity”.
As for BLC: chemokine, the “Affinity of binding to CCR10” value in the test with CCR10 [2] is listed as “lower affinity”.

For the origin of these results see US6699677B1, “Tethered ligands and methods of use” (ChemoCentryx, Inc., priority 1999, dated 2004).
